Laboratory results reported in patent publication US20110097312A1, “ANTI-CANCER VACCINES” (BOARD OF REGENTS, THE UNIVERSITY OF TEXAS SYSTEM, priority 2008, published 2011).
Ends that are not written are not given here.

Columns and labels:
myeloid leukemia = conditions: human, in vivo
Text: PR1 peptide vaccine can elicit PR1-CTL immunity in patients with myeloid leukemia. […] To test this in refractory leukemia patients, a phase I/II vaccine study was initiated. HLA-A2+ patients with CML (interferon-resistant or relapsed after BMT), AML (smoldering relapse or ≧2nd CR) or MDS (RAEB or RAEBt) with no detectable antibodies to proteinase 3 (no detectable cANCA) were eligible. Patients that relapsed after BMT or those ineligible for BMT were also eligible for study. Pregnant patients, HIV+ patients, and those with known vasculitis were excluded. Patients were required to have immunosuppression (i.e. cyclosporine, steroids) discontinued 4 weeks prior to study entry.
Primary endpoints were (1) toxicity assessment including the induction of autoimmunity resembling Wegener's granulomatosis, the systemic vasculitis associated with cANCA antibodies; and (2) induction of an immune response assessed by cytokine flow cytometry (CFC) of γ-IFN and PR1/HLA-A2 tetramer staining of PBMC before and 3 weeks after the last vaccination. Secondarily, clinical responses were assessed by standard criteria with bone marrow biopsy, cytogenetic studies (standard chromosome banding) and molecular studies (PCR for bcr-abl or other known abnormalities such as t(15;17), inv16, etc.) 3 weeks after the last vaccination. Patients were seen and evaluated in clinic every 3 weeks during the study period. […]

[1] = target: HLA-A2.1 (HLA-A*0201) with β2-microglobulin (human); experiment: cell-based or functional assay
HLA-A2 = HLA-A2 (Homo sapiens, UniProt P04439, D140Y/D185E/D98H/E176V/E277Q/G131W/G231S/I119V/I121R/I166T/I218V/L300P/L318F/N151K/N90K/P208A/P217A/Q86G/Q94H/R138H/R169H/T345S); experiment: Peptide-binding assay: HLA-A2 stabilization on T2 cells; conditions: HLA-A2 stabilization on T2 cells relative to PR1
Text: (§1) Nonameric peptides derived from cyclin E1 and cyclin E2 and predicted to bind to the HLA-A2 allele have similar amino acid sequences, differing only at position 7. Thus, the binding of CCNE1144-152 (cyclin E1 derived) and […] (cyclin E2 derived) was compared to that of PR1 by a peptide-binding assay. […] In 3 of 7 donors, CCNE1144-152-stimulated CTL lines killed both CCNE1144-152 and CCNE2144-152-pulsed T2 cells but not non-peptide-pulsed T2 cells and irrelevant peptide-pulsed T2 cells. In 4 of 7 same donors, CCNE2144-152-stimulated CTL lines killed both CCNE2144-152 and CCNE1144-152-pulsed T2 cells but not non-peptide-pulsed T2 cells and irrelevant peptide-pulsed T2 cells.

[2] = tested on: peptide-pulsed T2 cells, HLA-A2 transfected K562; experiment: Elicitation of cyclin E peptide-specific CTL lines and killing of targets; assay type: cell-based, human; conditions: for donors in which peptide-stimulated CTL lines killed CCNE1144-152 and CCNE2144-152-pulsed T2 cells: PBMCs from 7 HLA-A2 positive normal donors
Text: as §1
Thus, each peptide-specific CTLs can recognize both peptides with HLA-A2, but the immunogenicity of each peptide is different between individuals. Moreover, one of 4 CCNE1144-152-stimulated CTL lines which killed CCNE1144-152-pulsed T2 cell killed HLA-A2 transfected K562 leukemic cell line which is over-expressing cyclin E1 protein, but not non-transfected K562 leukemic cell line. Thus, CCNE1144-152-specific CTL can distinguish leukemic cell lines from normal PBMCs. From the data, it was concluded that cyclin E1/E2 derived peptides are tumor antigens, because 1) cyclin E1/E2 are highly over-expressed in hematological malignancy, 2) cyclin E1/E2 peptides can sufficiently bind to HLA-A2 to stimulate CTL and 3) CCLE1144-152 specific CTL preferentially kills leukemic cell lines HLA-A2 restrictively.

[3] = target: HLA-A2.1 (HLA-A*0201) with β2-microglobulin (human); experiment: peptide-binding assay: stabilisation of HLA-A2 on T2 cells, fluorescence relative to PR1
peptide-loaded T2 cells = experiment: Induction of primary CTL responses; cytotoxicity toward peptide-loaded T2 cells
Protocol: Induction of Primary CTL responses to peptides. These peptides were next used to stimulate T cells specific for peptide-coated targets. PBMC from a normal healthy donor heterozygous for HL-A2.1 were stimulated with peptide-pulsed T2 cells. […] Briefly, T2 cells (which co-express the costimulatory molecule B7.1) were washed 3 times in serum-free RPMI culture media supplemented with penicillin/streptomycin and glutamine (CM) and incubated with peptide at 20 μg/mL for 2 hr in CM. The peptide loaded T2 cells were then irradiated with 7500 cGy, washed once, and suspended with freshly isolated PBMC at a 1:1 ratio in CM supplemented with 10% human serum (HS) (Sigma, St. Louis, Mo.). After 7 days in culture, a second stimulation was performed and the following day, 60 IU/ml of recombinant human interleukin-2 (rhIL2) (Biosource International, Camarillo, Calif.) was added. After 14 days in culture a third stimulation was performed, followed on day 15 by addition of rhIL-2. A fourth stimulation was performed on day 21 followed on day 22 by the addition of rhIL2. After a total of 27 days in culture, the peptide-stimulated T cells were harvested and tested for peptide-specific cytotoxicity toward Calcein AM-labeled T2 cells, leukemia cell lines, and fresh human leukemia cells, as merely exemplary embodiments. […]

[4] = target: T1, HLA-A2.1 (HLA-A*0201) with β2-microglobulin (human); experiment: T2 cell HLA-A2.1 stabilisation (flow cytometry with BB7.2) and I125-β2-microglobulin dissociation from the heterotrimer
T1 construct: In the first assay HLA-A2.1 stood on TAP-deficient T2 cells; In the second assay it was a heterotrimer of HLA-A2.1 heavy chain, peptide and I125-labeled β2-microglobulin in solution

VLQELNVTV [PR1, VLQELNVTV]
dose levels eliminated on the basis of toxicity in Phase I (myeloid leukemia): none of the doses were eliminated on the basis of toxicity

BB7.2, mouse monoclonal antibody against HLA-A2.1
specific lysis of HLA-A2+ MCF-7 cells by PR1-CTL (calcein AM, 4 hours co-incubation) [1]: 17%

CCNE2144-152: Nonameric peptide derived from cyclin E2, predicted to bind to the HLA-A2 allele (ILLDWLLEV)
FI peptide/FI PR1 (HLA-A2): 1.189 | donors in which peptide-stimulated CTL lines killed CCNE1144-152 and CCNE2144-152-pulsed T2 cells [2]: 4 of 7

CCNE1144-152: Nonameric peptide derived from cyclin E1, predicted to bind to the HLA-A2 allele (ILLDWLMEV)
FI peptide/FI PR1 (HLA-A2): 1.008 | peptide-stimulated CTL lines that killed HLA-A2 transfected K562 but not non-transfected K562 [2]: one of 4 | donors in which peptide-stimulated CTL lines killed CCNE1144-152 and CCNE2144-152-pulsed T2 cells [2]: 3 of 7

CCNE1144-152 (cyclin E1 derived nonameric peptide) (from UniProt P24864 147-155)
FI CCNE1144-152/FI PR1 [3]: 1.01

KLLLALAGL [MY2]
specific lysis of cognate peptide-loaded target cells by CTL line generated against the peptide (peptide-loaded T2 cells): high specific lysis

CC[C@H](C)[C@H](NC(=O)[C@H](CCCNC(=N)N)NC(=O)[C@H](CCSC)NC(=O)[C@@H](NC(=O)[C@H](CCC(N)=O)NC(=O)[C@H](CCC(=O)O)NC(=O)[C@H](Cc1ccccc1)NC(=O)[C@H](CC(C)C)NC(=O)[C@@H](N)CCCNC(=N)N)C(C)C)C(=O)O [MY4, RLFEQVMRI]
cytotoxicity of CTL line generated against the peptide toward MY2-loaded targets (peptide-loaded T2 cells): did not demonstrate any significant cytotoxicity

B1: MY2 peptide (KLLLALAGL) from myeloperoxidase (peptide)
peptide: KLLLALAGL
binding result [4]: binds

B2: MY3 peptide (LLSYFKQPV) from myeloperoxidase (peptide)
peptide: LLSYFKQPV
binding result [4]: binds

B3: MY4 peptide (RLFEQVMRI) from myeloperoxidase (peptide)
peptide: RLFEQVMRI
binding result [4]: binds

B4: PR1 peptide (VLQELNVTV), HLA-A2.1-restricted nonamer derived from proteinase 3 (peptide)
peptide: VLQELNVTV
binding result [4]: binds

B5: MY5 peptide (LIQPFMFRL) from myeloperoxidase (peptide)
peptide: LIQPFMFRL
binding result [4]: binds

B6: MY1 peptide (SLWRRPFNV) from myeloperoxidase (peptide)
peptide: SLWRRPFNV
binding result [4]: binds
